Where two headings read alike, the source gives them in different places.
How the values were obtained:
[1] = molecular target: Zika virus (ZIKV) virions, envelope protein E (Zika virus)
[2] = molecular target: Dengue virus serotype 4 (DENV4) virions, envelope protein E (Dengue virus 4)
[3] = molecular target: Dengue virus serotype 4 (DENV4) virions, envelope protein E (Dengue virus 4); remark: listed apart in the source
[4] = molecular target: Zika virus (ZIKV) virions, envelope protein E (Zika virus); remark: listed apart in the source

## 1M7 (antibody)
[1]
  IC50 (read off the curve): 0.09 µg/mL

## EDE1 mAb C8 (antibody)
[1]
  IC50 (read off the curve): 0.2 µg/mL

## 2D22 (antibody)
DENV
  EC50 (read off the curve): 0.08 µg/mL

## EDE1 mAb C10 (antibody)
[2]
  EC50 (read off the curve): 0.2 µg/mL
Dakar (Zika virus)
  FRNT50 (focus reduction neutralization on Vero cells): 28.5 ng/mL
[3]
  FRNT50 (focus reduction neutralization on Vero cells): 88.9 ng/mL
H/PF/2013 (Zika virus)
  FRNT50 (focus reduction neutralization on Vero cells): 16.2 ng/mL
MR766
  FRNT50 (focus reduction neutralization on Vero cells): 0.2 ng/mL
DENV
  EC50 (read off the curve): 0.08 µg/mL

## ZKA78 (antibody)
[1]
  IC50 (read off the curve): 0.2 µg/mL

## ZKA190, human ZIKV-specific mAb (antibody)
[4]
  IC50 (read off the curve): 0.07 µg/mL

Source: patent US20210054055A1
